Tests used:
purified protein = substrate: O=[N+]([O-])c1ccc(O[C@@H]2O[C@H](CO)[C@@H](O)[C@H](O)[C@H]2O)cc1; assay: purified protein; format: biochemical, Aspergillus fumigatus; conditions: 50 mM sodium phosphate pH 6.0, 40 °C, 30 min
[1] = substrate: OCc1ccccc1O[C@@H]1O[C@H](CO)[C@@H](O)[C@H](O)[C@H]1O; assay: DNS method for released glucose, non-linear regression; format: biochemical, Aspergillus fumigatus; conditions: 50 mM sodium phosphate pH 6.0, 40 °C, 30 min
From the text: DNS method for released glucose, non-linear regression on AfBgl1.3

B1: AfBgl1.3 (Aspergillus fumigatus Af293) (protein)
chain: MGSTTTSTLPPDFLWGFATASYQIEGAVDEDGRGPSIWDTFCKIPGKIAGGASGEVACDSYHRTHEDIALLKECGAKAYRFSISWSRVIPLGGRNDPVNEKGLQHYVKFVDDLLAAGITPLVTLFHWDLPDALDKRYGGLLNKEEFVADFANYARVMFNAFGSKVKYWITFNEPWCSSVLGYNVGQFAPGRTSDRTKSPVGDGSREPWIVGHNILVAHGAAVKIYREEFKPRDGGEIGITLNGDWAEPWDPENPADVEACDRKIEFAISWFADPIYHGKYPDSMVKQLGDRLPTWTPEDIALVHGSNDFYGMNHYCANYIKAKTGEPDPNDVAGNLEILLQNKNGEWIGPETQSPWLRPHPIGFRKLLKWLSDRYNQPKIYVTENGTSLKGESDLPVDQIVNDDFRVQYFREYIAAMADAYTLDGVNVRAYMAWSLMDNFEWAEGYETRFGVTFVDYANNQRRIPKKSAKVLREIFDQYIEKA
With B1 the Km (purified protein) was 7.6 ± 0.8 mM, the Vmax (purified protein) was 656 µmol/min/mg and the kcat (purified protein) was 596 s⁻¹. It also gave a kcat/Km (purified protein) of 78000 M⁻¹ s⁻¹, a Km [1] of 17.6 ± 1.9 mM and a Vmax [1] of 706 µmol/min/mg. For the same protein, the kcat [1] was 622 s⁻¹ and the kcat/Km [1] was 35000 M⁻¹ s⁻¹.
